Test results from patent US11856945B2, “Methods and systems for preparing and preserving a biological sample” (Washington University, priority 2017, dated 2024).

Experiments:
[1] = system: streptozotocin-induced type 1 diabetic mice; assay: Blood glucose in streptozotocin-induced type 1 diabetic mice; type: in vivo; details: 1 mg/kg intravenous
Method: After establishing the chemical stability and structural integrity of ZIF-8 encapsulated insulin, the biological activity of ZIF-8 encapsulated insulin was assessed by measuring the effectiveness of ZIF-8 encapsulated insulin for treating hyperglycemia in streptozotocin-induced type 1 diabetic mice. […] The ZIF-8 encapsulated insulin was released by adding EDTA before injection. The blood glucose concentrations of mice in each group were then monitored for 12 h. […] Histological evaluation of the major organs of the mice at 5 days after intravenous injection of PBS or stabilized insulin. […] The ZIF-8 encapsulated insulin was released by adding EDTA before injection. Results are the mean±standard deviation (n=3). […] The partial loss of insulin bioactivity here could be attributed to the loss of structure integrity of insulin at elevated temperatures as confirmed by the aforementioned ELISA, CD and HPLC experiments.
Mice were anesthetized with 2% isoflurane.

[2] = Preservation of CA-125 spiked in serum/plasma dried on paper (ELISA); type: physicochemical
Text: Further attention was given to blood (and components serum and plasma), the most common biospecimens in biological and clinical studies. Compared to urine, serum or plasma represents a more complex biological matrix due to the presence of large amount of various proteins such as albumin, globulins and fibrinogen. Before proceeding to assess the preservation of specific protein biomarker, it was confirmed that different types of proteins are extracted from the paper substrates containing dried serum with or without ZIF-8 encapsulation using sodium dodecyl sulfate-polyacrylamide gel electrophoresis (SDS-PAGE), indicating the potential of this technique in preserving multiple protein biomarkers simultaneously in serum or plasma (FIG. 16). […] Lane a, c and e are corresponding to eluate of volunteer #1, #2 and #3 serum without ZIF-8 encapsulation, respectively. Lane b, d and f are corresponding to eluate of volunteer #1, #2 and #3 serum with ZIF-8 encapsulation, respectively. CA-125, a serum biomarker for ovarian cancer, was used as the model protein and spiked into serum from healthy people. Considering extremely high concentration of serum proteins, the serum was first diluted (5-, 10- or 20-fold) before spiking CA-125 and adding ZIF-8 precursors to ensure ZIF-8 formation and more complete encapsulation. The CA-125 spiked serum samples, both with and without ZIF-8 encapsulation, were dried on paper and stored at 40° C. for 1 week. […] The poor preservation of CA-125 from 5- and 10-fold diluted serum was due to the incomplete ZIF-8 formation and encapsulation (FIG. 18). The encapsulation efficiency was calculated by subtracting the remaining CA-125 amount in the supernatant after encapsulation and centrifugation (concentration measured by ELISA) from the total CA-125 amount. […] Subsequently, CA-125 was spiked into three different matrices that represent typical blood-derived biospecimens (serum, heparin-anticoagulated plasma and EDTA-anticoagulated plasma from healthy people with 20-fold dilution), dried on paper substrates with and without ZIF-8 encapsulation, and subsequently stored at 25, 40, or 60° C. for different durations of time. CA-125 concentration in the eluate was quantified using sandwich ELISA. […] (FIG. 17D-F). FIGS. 17D-F show preservation efficacy of CA-125 spiked in serum, heparin-plasma or EDTA-plasma on paper card at 25, 40 or 60° C. for different durations.
Sample preparation. NGAL-spiked artificial urine (50 μg/ml of NGAL, 25 μl) or patient urine (25 μl) was first mixed with 2-methylimidazole aqueous solution (12.5 μl) and then zinc acetate dihydrate aqueous solution (12.5 μl). The final concentrations of 2-methylimidazole after mixing were 320 mM, 160 mM, 80 mM and 40 mM. […]

[3] = Preservation of CA-125 spiked in fresh blood under temperature fluctuations and shipping; type: physicochemical; details: plasma from spiked fresh blood, 20-fold diluted; 8 days 25/40° C. temperature cycles or 10 days shipping
Method: The applicability of this technique was assessed to preserve blood samples drawn in resource-limited settings. Unlike serum and plasma, in some embodiments the presence of a large quantity of whole cells (red and white blood cells and platelets) in blood affects ZIF-8 encapsulation of target protein biomarkers. Considering that in some embodiments ZIF-8 also forms a thick layer on cell surfaces56 and lead to incomplete encapsulation or preservation of target protein biomarkers, it is important to remove blood cells through centrifugation before ZIF-8 encapsulation of protein biomarkers. Unfortunately, centrifuge is typically inaccessible in resource-limited settings considering that conventional systems are bulky, expensive and electrically-powered. A hand-powered centrifuge was implemented that was able to separate plasma from whole blood within 10 minutes for subsequent ZIF-8 encapsulation (FIG. 19A). In order to mimic fresh whole blood samples from ovarian cancer patients, four different concentrations of CA-125 within pathological-relevant range from 25 ng/ml-25 μg/ml were spiked into fresh blood from healthy volunteers.58-59 Then the plasma samples (heparin-anticoagulated) were separated from blood and diluted 20-fold for ZIF-8 encapsulation. To assess the preservation efficacy of this approach under unregulated conditions, two sets of experiments were devised. […]

[4] = Release of insulin from ZIF-8 encapsulation by EDTA; type: physicochemical; details: 30 mM zinc acetate with 120 mM 2-methylimidazole
Text: Elevated temperature is the primary detrimental condition during insulin transport and storage, an issue likely to be exacerbated by the increasing epidemic of diabetes in the developing countries, where refrigeration or “cold chain” facilities are not guaranteed. At high temperatures, insulin undergoes both physical (such as unfolding, non-native aggregation and fibrillation) and chemical degradations (such as deamidation, disulfide destruction and reshuffling). […] After 1 week, the ZIF-8 encapsulated insulin was released by adding ethylenediaminetetraacetic acid (EDTA) to dissociate the ZIF-8 crystals by breaking the coordination bonds between zinc and 2-methylimidazole (FIG. 25). The released insulin and unencapsulated insulin were then quantified by ELISA. The preservation efficacy (insulin recovery %) was calculated by comparing the recovered amount of insulin to the insulin amount prior to incubation. […] Compared to the optimal precursor concentrations, the low insulin recovery upon using 10 mM zinc acetate with 40 mM 2-methylimidazole is attributed to the incomplete encapsulation of insulin (FIG. 24). […] The insulin amount in the solution was measured by ELISA and compared with total insulin amount before encapsulation. […]

[5] = system: STZ-induced type 1 diabetic mice; details: mouse, in vivo
Method: STZ-induced male C57BL/6 (6-10 weeks) type 1 diabetic mice were purchased from Jackson Laboratory (USA). The blood glucose levels of mice were tested 1 day before administration by collecting blood (˜3 μL) from the tail vein and measuring using the Clarity GL2Plus glucose monitor (VWR, USA). The mice were randomly divided into four groups (3 mice each group) and intravenously injected via lateral tail vein with PBS solution, insulin stored at −20° C., ZIF-8 preserved insulin (dissociated by EDTA) and insulin alone stored at 40° C. for 1 week, respectively. The insulin dose for each mouse was 1 mg/kg (125 μg/mL, ˜200 μL). The blood glucose level was measured from tail vein blood samples (˜3 μL) of mice at different time points (at 10, 20, 40, and 60 min, and once per hour afterward for the first 12 h in the day of administration). Mice were anesthetized with 2% isoflurane. The mice treated with ZIF-8 preserved insulin and PBS were sacrificed after 5 days administration, and major organs were collected and sliced for haematoxylin and eosin (H&E) staining.

[6] = Circular dichroism of insulin secondary structure; type: physicochemical
Method: To further confirm that ZIF-8 encapsulation preserves the insulin structure, circular dichroism (CD) spectroscopy was employed to characterize the secondary structure of insulin with and without ZIF-8 encapsulation after 1 week incubation at 40° C. (FIG. 26D). […] Inset: Secondary structure content of the three types of insulin obtained from the CD spectra. […] FIG. 30 discloses the following: Left: CD spectra of pristine insulin prior to agitation, released insulin from ZIF-8 encapsulation after 48 h agitation at 200 rpm and insulin without ZIF-8 encapsulation after 48 h agitation at 200 rpm; Right: secondary structure content of the three types of insulin obtained from the CD spectra. […] FIG. 31 discloses the following: Left: CD spectra of pristine insulin prior to exposure to ethyl acetate, released insulin from ZIF-8 encapsulation after exposure to ethyl acetate for 6 h and insulin without ZIF-8 encapsulation after exposure to ethyl acetate for 6 h; and, right: secondary structure content of the three types of insulin obtained from the CD spectra. […]
Circular dichroism (CD) spectroscopy. […] The insulin recovered from various treatments was quantified by BCA assay and diluted to 100 μg/mL in PBS. The secondary structures of insulin (α-helical content, β-sheet content) were analyzed using CDPro software from CD spectra.

Q: What does the source list for “Insulin at −20° C.: unencapsulated insulin solution stored frozen at −20° C., the gold standard control”?
A: time blood glucose maintained in the normoglycemic range [1]: 4 h; blood glucose after return to hyperglycemic range ([1]; within 12 h): ~550 mg/dL

Q: For cancer antigen 125 [CA-125], which CA-125 preservation ([2]; 20-fold diluted serum, with ZIF-8 encapsulation, 40° C., one week) is on record?
A: ~90%

Q: And the CA-125 preservation ([2]; serum, heparin-plasma and EDTA-plasma (20-fold dilution), 25° C., 4 weeks)?
A: ~50%

Q: And the CA-125 preservation ([2]; serum, heparin-plasma and EDTA-plasma (20-fold dilution), 40° C., 4 weeks)?
A: ~40%

Q: What about the CA-125 preservation ([2]; serum, heparin-plasma and EDTA-plasma (20-fold dilution), 60° C., 4 weeks) of the same substance?
A: ~30%

Q: And the CA-125 preservation [3]?
A: 50-60%

Q: What does the source list for “unencapsulated insulin: human recombinant insulin in solution without ZIF-8 encapsulation”?
A: release of insulin from ZIF-8 by EDTA [4]: ~90%; Mice weight Before [5]: 22.0 ± 0.2 g; secondary structure (CD spectrum) ([6]; 1 week incubation at 40° C., versus pristine insulin): an increase in the β-sheet content along with the decrease in the α-helical content; secondary structure (CD spectrum) ([6]; after mechanical agitation (48 h at 200 rpm)): from an overall rich helical to dominant β-sheet structure; effect on blood glucose concentrations [1]: only moderately decreased glucose concentrations
